Source: publication PMC8163975 (The Journal of Biological Chemistry, 2021)
Where a chain is given by its changes, count along the chain named.

B1: RASSF9 RA domain, MBP fusion protein (domain or fragment, human, UniProt O75901 25-119, looked up)
chain: EEKEIVVWVCQEEKLVCGLTKRTTSADVIQALLEEHEATFGEKRFLLGKPSDYCIIEKWRGSERVLPPLTRILKLWKAWGDEQPNMQFVLVKADA
notes: RASSF9 RA domain, aa 25-119 of O75901
B2: RASSF9 RA domain, His-tagged MBP fusion (domain or fragment, human, UniProt O75901 25-119, looked up)
chain: B1 chain
notes: RASSF9 RAS association (RA) domain, aa 25–119 of O75901; Cloned into pMal-c5X-His; Used in fluorescence polarisation and, coupled to Ni-NTA beads, in the pull-down; source: E. coli, purified (Ni-NTA)
B3: RASSF3 RA domain, MBP fusion protein (domain or fragment, human, UniProt Q86WH2 79-187, looked up)
chain: YTGFIKVQMELCKPPQTSPNSGKLSPSSNGCMNTLHISSTNTVGEVIEALLKKFLVTESPAKFALYKRCHREDQVYACKLSDREHPLYLRLVAGPRTDTLSFVLREHEI
notes: RASSF3 RA domain, aa 79-187 of Q86WH2
B4: RASSF8 RA domain, MBP fusion protein (domain or fragment, human, UniProt Q8NHQ8 1-82, looked up)
chain: MELKVWVDGVQRIVCGVTEVTTCQEVVIALAQAIGRTGRYTLIEKWRDTERHLAPHENPIISLNKWGQYASDVQLILRRTGP
notes: RASSF8 RA domain, aa 1-82 of Q8NHQ8
B5: RASSF5 RA domain, MBP fusion protein (domain or fragment, UniProt Q5EBH1 200-358, looked up)
chain: PPTIQEIKQKIDSYNSREKHCLGMKLSEDGTYTGFIKVHLKLRRPVTVPAGIRPQSIYDAIKEVNPAATTDKRTSFYLPLDAIKQLHISSTTTVSEVIQGLLKKFMVVDNPQKFALFKRIHKDGQVLFQKLSIADYPLYLRLLAGPDTDVLSFVLKENE
notes: RASSF5 RA domain, aa 200-358 of Q5EBH1 as the methods print it; also called NORE1; RAPL
B6: RASSF2 RA domain, MBP fusion protein (domain or fragment, human, UniProt P50749 176-264, looked up)
chain: YNHKTSVFTPAYGSVTNVRINSTMTTPQVLKLLLNKFKIENSAEEFALYVVHTSGEKQKLKATDYPLIARILQGPCEQISKVFLMEKDQ
notes: RASSF2 RA domain, aa 176-264 of P50749
B7: RASSF2-to-1 variant of the RASSF2 RA domain, MBP fusion protein (domain or fragment, human, UniProt P50749 176-264, looked up)
chain: B6 chain with A11K, Y12D, V15K, T16H
notes: RASSF2 RA domain (aa 176-264 of P50749, the limits of the wild-type construct) with four hotspot residues changed to those of RASSF1; source: gene synthesis (BioCat) in pMal-c5X-His vector; E. coli, purified
B8: RAP1B, mGppNHp-bound (natural protein, human, UniProt P61224 1-184, looked up)
chain: MREYKLVVLGSGGVGKSALTVQFVQGIFVEKYDPTIEDSYRKQVEVDAQQCMLEILDTAGTEQFTAMRDLYMKNGQGFALVYSITAQSTFNDLQDLREQILRVKDTDDVPMILVGNKCDLEDERVVGKEQGQNLARQWNNCAFLESSAKSKINVNEIFYDLVRQINRKTPVPGKARKKSSCQLL
notes: human RAP1B; Loaded with mGppNHp
B9: RASSF1 RA domain, MBP fusion protein (domain or fragment, human, UniProt Q9NS23 194-288, looked up)
chain: RGPGRGTSVRRRTSFYLPKDAVKHLHVLSRTRAREVIEALLRKFLVVDDPRKFALFERAERHGQVYLRKLLDDEQPLRLRLLAGPSDKALSFVLK
notes: RASSF1 RA domain, aa 194-288 of Q9NS23
B10: RASSF7 RA domain, MBP fusion protein (domain or fragment, human, UniProt Q02833 6-89, looked up)
chain: AAMELKVWVDGIQRVVCGVSEQTTCQEVVIALAQAIGQTGRFVLVQRLREKERQLLPQECPVGAQATCGQFASDVQFVLRRTGP
notes: RASSF7 RA domain, aa 6-89 of Q02833
B11: RASSF7 RA domain, His-tagged MBP fusion (domain or fragment, human, UniProt Q02833 6-89, looked up)
chain: B10 chain
notes: RASSF7 RAS association (RA) domain, aa 6–89 of Q02833; Cloned into pMal-c5X-His; Used in fluorescence polarisation and, coupled to Ni-NTA beads, in the pull-down; source: E. coli, purified (Ni-NTA)
B12: RASSF4 RA domain, MBP fusion protein (domain or fragment, human, UniProt Q9H2L5 174-262, looked up)
chain: YNHKTSVFTPAYGSVTNVRVNSTMTTLQVLTLLLNKFRVEDGPSEFALYIVHESGERTKLKDCEYPLISRILHGPCEKIARIFLMEADL
notes: RASSF4 RA domain, aa 174-262 of Q9H2L5
B13: RASSF10 RA domain, MBP fusion protein (domain or fragment, human, UniProt A6NK89 4-133, looked up)
chain: SEKKISVWICQEEKLVSGLSRRTTCSDVVRVLLEDGCRRRRRQRRSRRLGSAGDPHGPGELPEPPNEDDEDDDEALPQGMLCGPPQCYCIVEKWRGFERILPNKTRILRLWAAWGEEQENVRFVLVRSEA
notes: RASSF10 RA domain, aa 4-133 of A6NK89
B14: RASSF6 RA domain, MBP fusion protein (domain or fragment, human, UniProt Q6ZTQ3 218-306, looked up)
chain: YNHETSIFIPAFESETKVRVNSNMRTEEVIKQLLQKFKIENSPQDFALHIIFATGEQRRLKKTDIPLLQRLLQGPSEKNARIFLMDKDA
notes: RASSF6 RA domain, aa 218-306 of Q6ZTQ3

Assays:
Conditions in all cases: both partners purified
[1] = molecular target: B8; assay: fluorescence polarisation; increasing concentrations of the RA/RB domain as MBP fusion protein (0.002-300 µM; or MBP alone) titrated to mGppNHp-bound RAS protein (1 µM); 30 mM Tris-HCl pH 7.4, 100 mM NaCl, 5 mM MgCl2, 3 mM DTT; Kd from a quadratic ligand-binding equation
[2] = molecular target: T1, RAP2A, mGppNHp-bound (human, UniProt P10114 1-183); assay: as above
T1 construct: human RAP2A; Loaded with mGppNHp
T1 sequence (looked up): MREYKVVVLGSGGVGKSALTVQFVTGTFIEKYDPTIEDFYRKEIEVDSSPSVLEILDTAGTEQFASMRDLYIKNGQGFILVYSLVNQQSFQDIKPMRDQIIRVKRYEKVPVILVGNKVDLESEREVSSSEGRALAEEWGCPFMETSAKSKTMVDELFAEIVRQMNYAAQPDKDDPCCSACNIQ

[3] = molecular target: T2, RHEB1, mGppNHp-bound (human, UniProt Q15382 1-184); assay: as above
T2 construct: human RHEB1; Loaded with mGppNHp; the discussion speaks of the RHEB G domain

[4] = molecular target: T3, RIT1•mGppNHp (human, UniProt Q92963 1-219); assay: fluorescence polarisation; increasing concentrations of RA/RB domains as MBP fusions (0.002–300 μM) added to mGppNHp-bound RAS proteins (1 μM); 30 mM Tris-HCl pH 7.4, 100 mM NaCl, 5 mM MgCl2, 3 mM DTT; quadratic ligand-binding equation
T3 construct: human RIT1; Loaded with mGppNHp

[5] = molecular target: T4, RRAS1, mGppNHp-bound (human, UniProt P10301 1-218); assay: fluorescence polarisation; increasing concentrations of the RA/RB domain as MBP fusion protein (0.002-300 µM; or MBP alone) titrated to mGppNHp-bound RAS protein (1 µM); 30 mM Tris-HCl pH 7.4, 100 mM NaCl, 5 mM MgCl2, 3 mM DTT; Kd from a quadratic ligand-binding equation
T4 construct: human RRAS (RRAS1); Loaded with mGppNHp
T4 sequence (looked up): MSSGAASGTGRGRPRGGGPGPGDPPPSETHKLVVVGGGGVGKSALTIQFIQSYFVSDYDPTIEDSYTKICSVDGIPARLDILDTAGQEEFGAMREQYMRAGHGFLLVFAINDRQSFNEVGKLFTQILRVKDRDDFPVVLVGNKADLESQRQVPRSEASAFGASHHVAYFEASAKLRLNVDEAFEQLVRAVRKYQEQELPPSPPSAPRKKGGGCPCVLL

[6] = molecular target: T5, RALA, mGppNHp-bound (human, UniProt P11233 1-206); assay: as above
T5 construct: human RALA; Loaded with mGppNHp
T5 sequence (looked up): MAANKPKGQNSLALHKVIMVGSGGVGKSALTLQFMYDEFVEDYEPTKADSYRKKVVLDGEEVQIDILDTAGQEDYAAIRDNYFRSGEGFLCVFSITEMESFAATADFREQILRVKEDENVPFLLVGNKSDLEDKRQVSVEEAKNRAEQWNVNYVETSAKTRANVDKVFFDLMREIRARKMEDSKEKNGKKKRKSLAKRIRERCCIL

[7] = molecular target: T6, RIT1, mGppNHp-bound (human, UniProt Q92963 1-219); assay: as above
T6 construct: human RIT1; Loaded with mGppNHp

[8] = molecular target: T4, RRAS1, mGppNHp-bound; assay: as above; remark: listed apart in the source
[9] = molecular target: T5, RALA, mGppNHp-bound; assay: as above; remark: listed apart in the source
[10] = molecular target: T7, CRAF RB domain, MBP fusion protein (human, UniProt P04049 51-131); assay: as above
T7 construct: source: E. coli (pMal-c5X-His vector), purified as MBP fusion protein

[11] = molecular target: T8, HRAS, mGppNHp-bound (human, UniProt P01112-1 1-189); assay: as above
T8 construct: human HRAS; Loaded with mGppNHp, a fluorescent non-hydrolysable GTP analogue; That the RAS proteins were the pGEX (GST) constructs is surmised; also called HRAS1; p21HRAS

T2 sequence (Q15382 whole entry): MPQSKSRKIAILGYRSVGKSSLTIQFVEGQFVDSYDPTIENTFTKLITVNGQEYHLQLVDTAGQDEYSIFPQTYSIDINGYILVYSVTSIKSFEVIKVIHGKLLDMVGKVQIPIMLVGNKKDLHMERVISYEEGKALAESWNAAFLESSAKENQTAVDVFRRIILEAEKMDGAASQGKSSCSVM
T6 sequence (Q92963 whole entry): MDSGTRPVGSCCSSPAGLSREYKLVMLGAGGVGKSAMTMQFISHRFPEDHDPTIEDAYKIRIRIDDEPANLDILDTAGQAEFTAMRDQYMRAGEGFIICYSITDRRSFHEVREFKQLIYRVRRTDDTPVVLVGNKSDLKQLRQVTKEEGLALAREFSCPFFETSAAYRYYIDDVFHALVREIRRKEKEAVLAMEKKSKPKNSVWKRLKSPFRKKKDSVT
T3 sequence (Q92963 whole entry, the tested form may be a part): as the sequence (Q92963 whole entry) above

Binder	Kd [1]	Kd [2]	Kd [3]	Kd [4]	Kd [5]	Kd [6]	Kd [7]	Kd [8]	Kd [9]	Kd [10]	Kd [11]
B1	74 µM	66 µM	143 µM								
B2				27 µM							
B3	116 µM	100 µM	64 µM		435 µM						
B4	66 µM	67 µM	102 µM		114 µM	115 µM	76 µM				
B5	4 µM	2 µM	46 µM		56 µM	49 µM					
B6	67 µM	47 µM	44 µM		122 µM	167 µM					
B7								100 µM	49 µM		
B8										30 µM	
B9	26 µM	22 µM	37 µM		33 µM	18 µM	136 µM				
B10	72 µM	68 µM	76 µM		30 µM	101 µM					
B11				34 µM							
B12	101 µM	88 µM	47 µM			191 µM	58 µM				
B13	73 µM	67 µM	150 µM		99 µM		55 µM				
B14	65 µM	53 µM	56 µM		112 µM		98 µM				91 µM
